In patent US20200282035A1 (MILTENYI BIOTEC B V, published 2020):

Experiments:
CD73 [1] = target: T1, CD73 (human, UniProt P21589 27-549); assay: scFv as binding domain of a CAR on T cells; told in words only, no direct binding assay
T1 construct: whole, on cells
T1 sequence (looked up): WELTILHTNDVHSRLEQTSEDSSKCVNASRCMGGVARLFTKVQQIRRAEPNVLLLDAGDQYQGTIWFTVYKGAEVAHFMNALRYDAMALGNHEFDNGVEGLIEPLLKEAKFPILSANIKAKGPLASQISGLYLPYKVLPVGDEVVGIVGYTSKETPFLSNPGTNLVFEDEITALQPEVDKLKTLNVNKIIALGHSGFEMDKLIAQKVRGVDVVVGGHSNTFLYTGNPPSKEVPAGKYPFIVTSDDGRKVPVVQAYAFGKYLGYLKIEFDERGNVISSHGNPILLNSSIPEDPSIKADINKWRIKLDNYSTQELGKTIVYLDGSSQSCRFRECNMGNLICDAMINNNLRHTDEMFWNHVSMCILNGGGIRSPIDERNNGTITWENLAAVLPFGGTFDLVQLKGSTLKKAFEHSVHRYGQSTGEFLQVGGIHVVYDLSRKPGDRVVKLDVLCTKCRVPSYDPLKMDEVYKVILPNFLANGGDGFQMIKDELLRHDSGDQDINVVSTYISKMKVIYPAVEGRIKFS

CD318 = target: T2, CD318 (human, UniProt Q9H5V8 30-836); assay: as above
T2 construct: whole, on cells
T2 sequence (looked up): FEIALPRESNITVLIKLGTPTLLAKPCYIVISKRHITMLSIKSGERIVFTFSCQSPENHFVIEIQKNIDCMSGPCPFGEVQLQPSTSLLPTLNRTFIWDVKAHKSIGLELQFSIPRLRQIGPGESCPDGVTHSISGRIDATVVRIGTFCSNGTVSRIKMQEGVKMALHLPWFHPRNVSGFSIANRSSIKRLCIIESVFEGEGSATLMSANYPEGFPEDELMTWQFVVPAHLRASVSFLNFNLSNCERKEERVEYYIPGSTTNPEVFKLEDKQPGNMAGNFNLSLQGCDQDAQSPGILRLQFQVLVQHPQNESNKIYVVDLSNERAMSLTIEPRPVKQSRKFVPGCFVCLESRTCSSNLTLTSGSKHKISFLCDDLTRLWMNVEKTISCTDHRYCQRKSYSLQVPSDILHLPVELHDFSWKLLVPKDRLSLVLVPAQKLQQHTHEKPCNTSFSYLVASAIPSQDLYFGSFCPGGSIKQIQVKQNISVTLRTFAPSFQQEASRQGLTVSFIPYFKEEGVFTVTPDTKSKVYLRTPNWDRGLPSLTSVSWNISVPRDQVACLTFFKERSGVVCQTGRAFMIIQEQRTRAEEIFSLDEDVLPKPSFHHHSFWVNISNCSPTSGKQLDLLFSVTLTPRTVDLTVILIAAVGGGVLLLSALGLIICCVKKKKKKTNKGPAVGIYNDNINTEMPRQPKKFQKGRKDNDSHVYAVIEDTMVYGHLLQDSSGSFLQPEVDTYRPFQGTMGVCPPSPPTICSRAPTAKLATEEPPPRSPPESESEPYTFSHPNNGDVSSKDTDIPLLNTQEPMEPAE

CD73 [2] = target: T1, CD73; assay: antibody used for staining of human pancreatic cancer cells (flow cytometry, immunohistochemistry; Example 1); told in words only
TSPAN8 = target: T3, TSPAN8 (human, UniProt P19075 1-237); assay: scFv as binding domain of a CAR on T cells; told in words only, no direct binding assay
T3 construct: whole, on cells
T3 sequence (looked up): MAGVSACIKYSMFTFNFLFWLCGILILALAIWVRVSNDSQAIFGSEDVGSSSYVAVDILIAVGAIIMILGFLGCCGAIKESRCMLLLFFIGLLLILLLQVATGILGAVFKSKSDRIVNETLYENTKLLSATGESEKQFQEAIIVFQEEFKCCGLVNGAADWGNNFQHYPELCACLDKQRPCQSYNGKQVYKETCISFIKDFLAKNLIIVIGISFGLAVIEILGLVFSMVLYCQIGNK

CD66c [3] = target: T4, CD66c (human, UniProt P40199 35-320); assay: as above
T4 construct: whole, on cells
T4 sequence (looked up): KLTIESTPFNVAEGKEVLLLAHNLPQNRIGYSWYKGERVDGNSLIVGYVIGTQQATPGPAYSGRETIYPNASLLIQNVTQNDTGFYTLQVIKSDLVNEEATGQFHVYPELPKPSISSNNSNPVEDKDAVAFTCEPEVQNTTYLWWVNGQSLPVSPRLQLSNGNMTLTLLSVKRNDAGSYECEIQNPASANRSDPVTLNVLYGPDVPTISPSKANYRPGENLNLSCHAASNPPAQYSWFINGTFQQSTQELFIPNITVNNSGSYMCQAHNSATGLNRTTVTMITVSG

CD142 [4] = target: T5, CD142 (human, UniProt P13726 33-295); assay: as above
T5 construct: whole, on cells

CD66c [5] = target: T4, CD66c; assay: antibody used for staining of human pancreatic cancer cells (flow cytometry, immunohistochemistry; Example 1); told in words only
CD142 [6] = target: T5, CD142; assay: as above

B1: CD73 specific CAR sequence VL-linker-VH (scFv)
scFv: DIVMTQSHKFMSTSVGDRVSITCKASQDVGSAVAWYQQKPGQSPKLLIYWASTRHTGVPDRFTGSGSGTDFTLTISNVQSEDLADYFCQQYSSYPLTFGAGTKLELKGGGGSGGGGSGGGGSEVQLQQSGAELVKPGASVKLSCTASGFNIKDTYIHWVKQRPEQGLEWIGRIDPATGNTEYDPKFQGKATITADTSSNTAYLHLSSLTSEDTAVYYCARGYYGSSYPPWFAYWGQGTLVTVSA
notes: not shown: hinge, transmembrane and signalling domains of the CAR
B1: binds (CD73 [1]).

B2: CD318 specific CAR sequence VL-linker-VH (scFv)
scFv: DIVMTQSHKFMSTSVGDRVSITCKASQDVSTAVAWYQQKSGQSPKLLIYWASTRHTGVPDRFTGSGSGTDYTLTISSVQAEDLALYYCQQHYSTPYTFGGGTKLEIKGGGGSGGGGSGGGGSEVQLQQSGAELVRPGALVKLSCKASGFNIKDYYIHWVKQRPEQGLEWIGWIDPENGHTIYDPKFQGKASITADTSSNTAYLQLSSLTSEDTAVYYCARLTGTTYAMDYWGQGTSVTVSS
notes: as for B1
B2: binds (CD318).

B3: CD73 specific antibody (antibody, V domains shown)
VH: EVQLQQSGAELVKPGASVKLSCTASGFNIKDTYIHWVKQRPEQGLEWIGRIDPATGNTEYDPKFQGKATITADTSSNTAYLHLSSLTSEDTAVYYCARGYYGSSYPPWFAYWGQGTLVTVSA
VL: DIVMTQSHKFMSTSVGDRVSITCKASQDVGSAVAWYQQKPGQSPKLLIYWASTRHTGVPDRFTGSGSGTDFTLTISNVQSEDLADYFCQQYSSYPLTFGAGTKLELK
notes: also called CD73 VH
B3: binds (CD73 [2]).

B4: TSPAN8 specific CAR sequence VL-linker-VH (scFv)
scFv: DIQMTQSPASLSASLEEIVTITCQASQDIGNWLSWYQQKPGKSPQLLIYGATSLADGVPSRFSGSRSGTQYSLKISRLQVEDIRIYYCLQAYSAPWTFGGGTKLELKGGGGSGGGGSGGGGSEVKLLESGGGLVQPGGSMRLSCAASGFTFTDFYMNWIRQPAGKAPEWLGFIRNKASGYTTEYNPSVKGRFTISRDNTQNMLYLQMNTLRAEDTATYYCARAHSYYGYDYFDYWGQGVMVTVSS
notes: as for B1
B4: binds (TSPAN8).

B5: CD66c specific CAR sequence VH-linker-VL (scFv)
scFv: QVTLKESGPGILKPSQTLSLTCSFSGFSLSTSGMGVGWIRQPSGKSLEWLAHIWWNDERYYNPSLKNQLTISKDTSRNQVFLKITSVDTADTATYYCARSPRGYFDYWGHGTTLTVSSGGGGSGGGGSGGGGSDIVMTQSQKFMSTSVGDRVSVTCKASQNVVTNVAWYQQTPGQSPKALIYSASYRYSGVPDRFSGSGSGTDFTLTISNVQSGDLAEYFCQQYNSYPLTFGAGTKLELK
notes: as for B1
B5: binds (CD66c [3]).

B6: CD142 specific CAR sequence VL-linker-VH (scFv)
scFv: QIVLTQSPALMSASPGEKVTMTCSASSSVTYMYWYQQKPRSSPKPWIYLTSNLASGVPARFSGSGSGTSYSLTISSVEAEDAATYYCQQWSSNPLTFGAGTKLELKGGGGSGGGGSGGGGSQVQLKQSGPGLVQPSQSLSITCTVSGFSLSNYGVHWVRQSPGKGLEWLGVIWSGGSTDYNVAFISRLIITKDNSKSQVFLKMNSLQADDTAIYFCARTTGSVFNAMDHWGQGTSVTVSS
notes: as for B1
B6: binds (CD142 [4]).

B7: CD66c specific antibody (antibody, V domains shown)
VH: QVTLKESGPGILKPSQTLSLTCSFSGFSLSTSGMGVGWIRQPSGKSLEWLAHIWWNDERYYNPSLKNQLTISKDTSRNQVFLKITSVDTADTATYYCARSPRGYFDYWGHGTTLTVSS
VL: DIVMTQSQKFMSTSVGDRVSVTCKASQNVVTNVAWYQQTPGQSPKALIYSASYRYSGVPDRFSGSGSGTDFTLTISNVQSGDLAEYFCQQYNSYPLTFGAGTKLELK
notes: also called CD66c VH
B7: binds (CD66c [5]).

B8: CD318 specific CAR sequence VH-linker-VL (scFv)
scFv: EVQLQQSGAELVRPGALVKLSCKASGFNIKDYYIHWVKQRPEQGLEWIGWIDPENGHTIYDPKFQGKASITADTSSNTAYLQLSSLTSEDTAVYYCARLTGTTYAMDYWGQGTSVTVSSGGGGSGGGGSGGGGSDIVMTQSHKFMSTSVGDRVSITCKASQDVSTAVAWYQQKSGQSPKLLIYWASTRHTGVPDRFTGSGSGTDYTLTISSVQAEDLALYYCQQHYSTPYTFGGGTKLEIK
notes: as for B1
B8: binds (CD318).

B9: CD66c specific CAR sequence VL-linker-VH (scFv)
scFv: DIVMTQSQKFMSTSVGDRVSVTCKASQNVVTNVAWYQQTPGQSPKALIYSASYRYSGVPDRFSGSGSGTDFTLTISNVQSGDLAEYFCQQYNSYPLTFGAGTKLELKGGGGSGGGGSGGGGSQVTLKESGPGILKPSQTLSLTCSFSGFSLSTSGMGVGWIRQPSGKSLEWLAHIWWNDERYYNPSLKNQLTISKDTSRNQVFLKITSVDTADTATYYCARSPRGYFDYWGHGTTLTVSS
notes: as for B1
B9: binds (CD66c [3]).

B10: CD73 specific CAR sequence VH-linker-VL (scFv)
scFv: EVQLQQSGAELVKPGASVKLSCTASGFNIKDTYIHWVKQRPEQGLEWIGRIDPATGNTEYDPKFQGKATITADTSSNTAYLHLSSLTSEDTAVYYCARGYYGSSYPPWFAYWGQGTLVTVSAGGGGSGGGGSGGGGSDIVMTQSHKFMSTSVGDRVSITCKASQDVGSAVAWYQQKPGQSPKLLIYWASTRHTGVPDRFTGSGSGTDFTLTISNVQSEDLADYFCQQYSSYPLTFGAGTKLELK
notes: as for B1
B10: binds (CD73 [1]).

B11: CD142 specific CAR sequence VH-linker-VL (scFv)
scFv: QVQLKQSGPGLVQPSQSLSITCTVSGFSLSNYGVHWVRQSPGKGLEWLGVIWSGGSTDYNVAFISRLIITKDNSKSQVFLKMNSLQADDTAIYFCARTTGSVFNAMDHWGQGTSVTVSSGGGGSGGGGSGGGGSQIVLTQSPALMSASPGEKVTMTCSASSSVTYMYWYQQKPRSSPKPWIYLTSNLASGVPARFSGSGSGTSYSLTISSVEAEDAATYYCQQWSSNPLTFGAGTKLELK
notes: as for B1
B11: binds (CD142 [4]).

B12: TSPAN8 specific CAR sequence VH-linker-VL (scFv)
scFv: EVKLLESGGGLVQPGGSMRLSCAASGFTFTDFYMNWIRQPAGKAPEWLGFIRNKASGYTTEYNPSVKGRFTISRDNTQNMLYLQMNTLRAEDTATYYCARAHSYYGYDYFDYWGQGVMVTVSSGGGGSGGGGSGGGGSDIQMTQSPASLSASLEEIVTITCQASQDIGNWLSWYQQKPGKSPQLLIYGATSLADGVPSRFSGSRSGTQYSLKISRLQVEDIRIYYCLQAYSAPWTFGGGTKLELK
notes: as for B1
B12: binds (TSPAN8).

B13: CD142 specific antibody (antibody, V domains shown)
VH: QVQLKQSGPGLVQPSQSLSITCTVSGFSLSNYGVHWVRQSPGKGLEWLGVIWSGGSTDYNVAFISRLIITKDNSKSQVFLKMNSLQADDTAIYFCARTTGSVFNAMDHWGQGTSVTVSS
VL: QIVLTQSPALMSASPGEKVTMTCSASSSVTYMYWYQQKPRSSPKPWIYLTSNLASGVPARFSGSGSGTSYSLTISSVEAEDAATYYCQQWSSNPLTFGAGTKLELK
notes: also called CD142 VH
B13: binds (CD142 [6]).
